Experimental data as given in article PMC7949036, “Zinc transporter mutations linked to acrodermatitis enteropathica disrupt function and cause mistrafficking” (The Journal of Biological Chemistry, 2021).
Changes are numbered by the printed parent chain. Numbers in names are those of the source.

B1: extracellular domain of ZIP4 from Pteropus alecto (black fruit bat), wild type (domain or fragment, UniProt L5KLU7 36-322, looked up)
chain: SGQGALDRVALGGLLNTLAARVHCTSGPCGKCLSVDDLLALGRPEEPGHLARLSAAAALYLSDPEGTCEDIRAGRWASRADHLLALLEGPKALAPGLSRLLQRIQAQTTGQPSAGEACVDPPQLLREAGVAGAPGSPGPVLATLLEHVGRGSCFHTLPTPQYFVDFVFQQSHGNTPNISVAELAALMQRLGVGGVTETHSDHHHQEKRVNRQGPTPLTAPNSSSDTWDTVCLSARDVMAVYGLSEQTGVTPEAWAQLSPALLQQQLSGACSPQPSHPAQNQLSQAEK
notes: ZIP4 (zinc transporter, SLC39A family) of Pteropus alecto, extracellular domain, residues 36-322 of ELK11751; His6 tag removed by thrombin; also called pZIP4-ECD; wild-type pZIP4-ECD; source: E. coli Origami B(DE3) pLysS, purified (Ni-NTA, Mono-Q, SEC); not shown: His6, N-terminal, cleaved
B2: pZIP4-ECD P193L variant (domain or fragment, Pteropus alecto, UniProt L5KLU7 36-322, looked up)
chain: B1 chain with P158L
notes: ZIP4 of Pteropus alecto, extracellular domain, residues 36-322 of ELK11751, with P193L (equivalent to P200L of human ZIP4); source: E. coli Origami B(DE3) pLysS, purified (Ni-NTA, Mono-Q, SEC); not shown: His6, N-terminal, cleaved
B3: pZIP4-ECD C64R variant (domain or fragment, Pteropus alecto, UniProt L5KLU7 36-322, looked up)
chain: B1 chain with C29R
notes: ZIP4 of Pteropus alecto, extracellular domain, residues 36-322 of ELK11751, with C64R (equivalent to C62R of human ZIP4); source: E. coli Origami B(DE3) pLysS, purified (Ni-NTA, Mono-Q, SEC); not shown: His6, N-terminal, cleaved
B4: pZIP4-ECD A91T variant (domain or fragment, Pteropus alecto, UniProt L5KLU7 36-322, looked up)
chain: B1 chain with A56T
notes: ZIP4 of Pteropus alecto, extracellular domain, residues 36-322 of ELK11751, with A91T (equivalent to A99T of human ZIP4); source: E. coli Origami B(DE3) pLysS, purified (Ni-NTA, Mono-Q, SEC); not shown: His6, N-terminal, cleaved
B5: pZIP4-ECD R87C variant (domain or fragment, Pteropus alecto, UniProt L5KLU7 36-322, looked up)
chain: B1 chain with R52C
notes: ZIP4 of Pteropus alecto, extracellular domain, residues 36-322 of ELK11751, with R87C (equivalent to R95C of human ZIP4); source: E. coli Origami B(DE3) pLysS, purified (Ni-NTA, Mono-Q, SEC); not shown: His6, N-terminal, cleaved
B6: hZIP4 (human ZIP4): N261Q (protein)
parent chain: MASLVSLELGLLLAVLVVTATASPPAGLLSLLTSGQGALDQEALGGLLNTLADRVHCANGPCGKCLSVEDALGLGEPEGSGLPPGPVLEARYVARLSAAAVLYLSNPEGTCEDARAGLWASHADHLLALLESPKALTPGLSWLLQRMQARAAGQTPKMACVDIPQLLEEAVGAGAPGSAGGVLAALLDHVRSGSCFHALPSPQYFVDFVFQQHSSEVPMTLAELSALMQRLGVGREAHSDHSHRHRGASSRDPVPLISSSNSSSVWDTVCLSARDVMAAYGLSEQAGVTPEAWAQLSPALLQQQLSGACTSQSRPPVQDQLSQSERYLYGSLATLLICLCAVFGLLLLTCTGCRGVTHYILQTFLSLAVGAVTGDAVLHLTPKVLGLHTHSEEGLSPQPTWRLLAMLAGLYAFFLFENLFNLLLPRDPEDLEDGPCGHSSHSHGGHSHGVSLQLAPSELRQPKPPHEGSRADLVAEESPELLNPEPRRLSPELRLLPYMITLGDAVHNFADGLAVGAAFASSWKTGLATSLAVFCHELPHELGDFAALLHAGLSVRQALLLNLASALTAFAGLYVALAVGVSEESEAWILAVATGLFLYVALCDMLPAMLKVRDPRPWLLFLLHNVGLLGGWTVLLLLSLYEDDITF

Legend:
[1] = molecular target: the molecule itself; test: SEC; Superdex 200 10/300GL, 10 mM HEPES pH 7.3, 100 mM NaCl; apparent molecular weight estimated from protein standards; native purified protein
[2] = cell-based 65Zn uptake, HEK293T; conditions: glycan lost; control: wild type
[3] = confocal immunofluorescence, FITC anti-HA, nonpermeabilized cells; conditions: glycan lost; control: wild type

Protein	binding result [1]	other results
B1	–	stoichiometry N [1]: 2
B2	binds	–
B3	binds	–
B4	binds	–
B5	binds	–
B6	–	other: transport activity [2]: decreases; localisation_or_trafficking [3]: no change
